From US20240294611A1 (University of Texas, published 2024)
Changes are numbered by the printed parent chain. “And” between values parts separate entries of the source, which are not always exact repeats. Equal values may be shown once. Read-outs that look alike come from different tables or passages of the source.

Columns and labels:
[1] = target: HexaPro E1031R (SARS-CoV-2, UniProt P0DTC2 14-1208)
[2] = target: T1, wild-type SARS-CoV-2 spike without stabilizing modifications (on cells or pseudovirus) (SARS-CoV-2, UniProt P0DTC2 14-1273); experiment: cell-based or functional assay
[3] = target: T2, SARS-CoV-2 D614G spike without stabilizing modifications (on cells or pseudovirus) (SARS-CoV-2, UniProt P0DTC2 14-1273); experiment: cell-based or functional assay
[4] = target: T1, wild-type SARS-CoV-2 spike without …; experiment: cell-based or functional assay; remark: listed apart in the source
[5] = target: T2, SARS-CoV-2 D614G spike without …; experiment: cell-based or functional assay; remark: listed apart in the source
[6] = target: SARS-CoV-2 B.1.1.7 (variant Alpha) spike on pseudovirus (SARS-CoV-2, UniProt P0DTC2 14-1273); experiment: cell-based or functional assay
[7] = target: T3, aglycosylated HexaPro (HexaPro treated with Endo H) (SARS-CoV-2, UniProt P0DTC2 14-1208); experiment: BLI equilibrium, IgG on anti-Fc tips
[8] = target: T3, aglycosylated HexaPro (HexaPro treated …); experiment: BLI equilibrium, IgG on anti-Fc sensor
[9] = target: soluble SARS-CoV-2 spike protein variant 4PDS (SARS-CoV-2, UniProt P0DTC2 14-1208)
[10] = target: T4, SARS-CoV-2 HexaPro S2 (isolated S2 domain) (SARS-CoV-2, UniProt P0DTC2 697-1208)
[11] = target: T4, SARS-CoV-2 HexaPro S2 (isolated S2 …); remark: listed apart in the source
[12] = target: T4, SARS-CoV-2 HexaPro S2 (isolated S2 …); remark: listed apart in the source
[13] = target: T4, SARS-CoV-2 HexaPro S2 (isolated S2 …); remark: listed apart in the source
[14] = target: T4, SARS-CoV-2 HexaPro S2 (isolated S2 …); remark: listed apart in the source
[15] = target: T4, SARS-CoV-2 HexaPro S2 (isolated S2 …); experiment: BLI equilibrium, IgG on anti-Fc tips
[16] = target: T4, SARS-CoV-2 HexaPro S2 (isolated S2 …); experiment: BLI; column head says Fab Kd, footnote says immobilized IgG

B1: 3A3 full-length antibody (mouse variable region-human IgG1 constant region chimera) (antibody, V domains shown)
VH: QVQLQQSGAELLKPGASVKLSCTASGFNIKDTYIHWLKQRPEQGLEWIGRIGPAIGNTIYAPKFQGKATITTDTSSNTAYLQLSSLTSEDTAVYYCARYYGSSYYYFDYWGQGTTLTVSS
VL: DIVMTQSAPSVPVTPGESVSISCRSSKSLLHSNGNTYLYWFLQRPGQSPQLLIYRMSNLASGVPDRFSGSGSGTAFTLRISRVEAEDVGVYYCMQYLEYPLTFGAGTKLELKR
Kd [1]: 1.5 nM
kon [1]: 2.88e+06 M⁻¹ s⁻¹
IC50 of pseudovirus entry (FIG. 3A) [2]: 25.6 mg/L
IC50 of pseudovirus infection (FIG. 3A) [2]: ~173 nM
IC50 of pseudovirus entry (FIG. 3A) [3]: 2.05 mg/L
IC50 of pseudovirus infection (FIG. 3A) [3]: ~14 nM
Pseudovirus IC50 [4]: 212 nM
Pseudovirus IC50 [5]: 94 nM
Pseudovirus IC50 [6]: 119 nM
Kd [7]: 7.9 nM
Kd [8]: 8.4 nM

B2: combination of AM3A3-5 heavy chain with unmodified hu3A3 (WT; ven3A3) light chain (antibody, V domains shown)
VH: QVQLVQSGAEVLKPGASVKLSCKASGFNIKDTYIHWLKQAPGQRLEWIGRIGPAIGNTIYAPKFQGKATITTDTSASTAYLELSSLRSEDTAVYYCARYYGYAYYYFDYWGQGTTVTVSS
VL: DIVMTQSPLSVPVTPGEPVSISCRSSKSLLHSNGNTYLYWFLQKPGQSPQLLIYRMSNLASGVPDRFSGSGSGTAFTLKISRVEAEDVGVYYCMQYLEYPLTFGAGTKLEIK
Fold improvement over WT/WT [9]: 0.5 fold

B3: combination of AM3A3-3 heavy chain with unmodified hu3A3 (WT; ven3A3) light chain (antibody, V domains shown)
VH: B2 VH with E10D, D31N, Y102S, A103S, F107L
VL: B2 VL
Fold improvement over WT/WT [9]: 11.6 fold

B4: combination of AM3A3-5 heavy chain with AM3A3-3 light chain (antibody, V domains shown)
VH: B2 VH
VL: B2 VL with L30H, S72N, G104D
Fold improvement over WT/WT [9]: 4.3 fold

B5: combination of unmodified hu3A3 (WT; ven3A3) heavy chain with AM3A3-3 light chain (antibody, V domains shown)
VH: B2 VH with Y102S, A103S
VL: B2 VL with L30H, S72N, G104D
Fold improvement over WT/WT [9]: 13.7 fold

B6: combination of unmodified hu3A3 (WT; ven3A3) heavy chain with AM3A3-5 light chain (antibody, V domains shown)
VH: B2 VH with Y102S, A103S
VL: B2 VL with Y54A, N58T
Fold improvement over WT/WT [9]: 63.7 fold

B7: humanized 3A3 with ven3A3VH and ven3A3VL (antibody, V domains shown)
VH: B2 VH with Y102S, A103S
VL: B2 VL
Fold improvement over WT/WT [9]: 1 fold

B8: combination of AM3A3-3 heavy chain with AM3A3-5 light chain (antibody, V domains shown)
VH: B2 VH with E10D, D31N, Y102S, A103S, F107L
VL: B2 VL with Y54A, N58T
Fold improvement over WT/WT [9]: 95.6 fold

B9: AM3A3-3 (affinity matured humanized 3A3) (antibody, V domains shown)
VH: B2 VH with E10D, D31N, Y102S, A103S, F107L
VL: B2 VL with L30H, S72N, G104D
Fold improvement over WT/WT [9]: 63.3 fold

B10: AM3A3-5 (affinity matured humanized 3A3) (antibody, V domains shown)
VH: B2 VH
VL: B2 VL with Y54A, N58T
Fold improvement over WT/WT [9]: 50.5 fold

B11: 3A3 Fab (mouse Fab fragment) (Fab, V domains shown)
VH: B1 VH
VL: B1 VL
Kd [10]: ~2.5 nM
koff [10]: 0.005 s⁻¹
kon [10]: ~2e+06 M⁻¹ s⁻¹
Kd [11]: 2.2 nM and 3.2 nM
Kd [12]: 3.2 nM
Kd [13]: 2.2 nM
koff [13]: 0.0049 s⁻¹
kon [13]: 2.3e+06 M⁻¹ s⁻¹
Kd [14]: 3.6 nM
koff [14]: 0.0046 s⁻¹
kon [14]: 1.3e+06 M⁻¹ s⁻¹

B12: 4H2 full-length antibody (mouse variable region-human IgG1 constant region chimera) (antibody, V domains shown)
VH: EVQVVESGGGLVQPGGSRKLSCAASGFTFSSYGMSWVRQTPDKRLEWVATISSGGSYTYYPDSVKGRFTISRDNAKNNLYLQMSSLKSEDTAMYYCARDGYGNYVGMDYWGQGTSVTVSS
VL: DIVLTQSPAIMSASPGEKVTITCSASSSVSYMHWFQQKPGTSPKLWIYSTSNLASGVPARFSGSGSGTSYSLTISSMEAEDAATYYCQQWSSNSYTFGGGTKLEIKR
Kd [15]: 63 nM
Kd [7]: 9 nM
Kd [8]: 9 nM
Kd [16]: 63 nM

B13: 4A5 full-length antibody (mouse variable region-human IgG1 constant region chimera) (antibody, V domains shown)
VH: QVQLQQSGAELAKPGASVKMSCKASGYTFTSYWMHWVKQRPGQGLEWVGMIDPSNSETRLNQKFKDKATLNVDKSSNTAYMQLSSLTSEDSAVYYCARLGRYWGQGTTLTVSS
VL: DIVMTQSHKFMSTSVGDRVSITCKASQNVGANVAWYQQKPGQSPKALIYSASYRYSGVPDRFTGSGSGTDFTLTISNVQSEDLAEYFCQQYNSYPYTSGGGTKLEIKR
Kd [15]: 11 nM
Kd [7]: 10 nM
Kd [8]: 10 nM
Kd [16]: 11 nM
